Data reported in paper PMC3182529 (Cell cycle (Georgetown, Tex.), 2008).

What was measured:
[1] = molecular target: H3S10phG12P (1–20) (UniProt P68431 2-21, G12P, phosphoserine at 10); assay: fluorescence polarisation
[2] = molecular target: H3S10phK14acG12P (1–20) (UniProt P68431 2-21, G12P, phosphoserine at 10; acetyl-lysine at 14); assay: fluorescence polarisation

Kd [1]: 19.9 µM
Kd [2]: 40 µM
B1: 14-3-3ζ (natural protein)
chain: MDKNELVQKAKLAEQAERYDDMAACMKSVTEQGAELSNEERNLLSVAYKNVVGARRSSWRVVSSIEQKTEGAEKKQQMAREYREKIETELRDICNDVLSLLEKFLIPNASQAESKVFYLKMKGDYYRYLAEVAAGDDKKGIVDQSQQAYQEAFEISKKEMQPTHPIRLGLALNFSVFYYEILNSPEKACSLAKTAFDEAIAELDTLSEESYKDSTLIMQLLRDNLTLWTSDTQGDEAEAGEGGEN
